pKd, pKi: −log10 of the molar value.
What was measured:
[1] = molecular target: cpSRP43 (mature) (UniProt O22265); assay: fluorescence polarisation
[2] = molecular target: LHCP (light-harvesting chlorophyll a/b binding protein), fluorescein-labeled (UniProt P07371); assay: fluorescence polarisation

pKi [1]	pKd [2]	Substance
5.66		L18 peptide
	6.28	cpSRP43 ΔCD2 (domain or fragment)
	6.05	cpSRP43 ΔCD3 (domain or fragment)

Reference: article PMC2917185
